According to paper PMC7473855:

Molecular target: SARS-CoV-2 prefusion-stabilized spike ectodomain with a C-terminal T4 fibritin trimerization motif (SARS-CoV-2) (UniProt P0DTC2)
Experiment: cryo-EM structure

Sequence of Ty1 nanobody (VHH) (VHH): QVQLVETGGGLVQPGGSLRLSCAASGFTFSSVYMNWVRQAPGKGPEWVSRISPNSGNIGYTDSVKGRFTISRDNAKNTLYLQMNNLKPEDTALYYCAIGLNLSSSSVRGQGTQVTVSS

## Ty1 nanobody (VHH)
  stoichiometry N (Ty1 per spike trimer): 3
